Like-named read-outs stand apart in the source and are kept apart here. Numbered stars: 1 amine (or outer) side, 2 acyl side, 3 side chain; on linkers, the order of the positions; unused ones are H or OH. Bridge positions count the residues as written; N and C are the ends. Square brackets hold non-standard residues; d marks the D form. Ends that are not written are not given here. Phe(4-guanidino) = N=C(N)Nc1ccc(C[C@H](N)C(=O)O)cc1; TBMB = c1c(C[*:1])cc(C[*:3])cc1C[*:2]; NMeR = CN[C@@H](CCCNC(=N)N)C(=O)O; hArg = N=C(N)NCCCC[C@H](N)C(=O)O; NMeS = CN[C@@H](CO)C(=O)O; Aze = O=C(O)[C@@H]1CCN1; Abu = CC[C@H](N)C(=O)O; Sar = CNCC(=O)O
Assays:
human plasma Kallikrein [1] = molecular target: T1, human plasma Kallikrein (human, UniProt P03952 20-638, limits assumed); experiment: enzyme inhibition assay
T1 construct: also called hPK; human PK
T1 sequence (P03952 20-638 limits assumed): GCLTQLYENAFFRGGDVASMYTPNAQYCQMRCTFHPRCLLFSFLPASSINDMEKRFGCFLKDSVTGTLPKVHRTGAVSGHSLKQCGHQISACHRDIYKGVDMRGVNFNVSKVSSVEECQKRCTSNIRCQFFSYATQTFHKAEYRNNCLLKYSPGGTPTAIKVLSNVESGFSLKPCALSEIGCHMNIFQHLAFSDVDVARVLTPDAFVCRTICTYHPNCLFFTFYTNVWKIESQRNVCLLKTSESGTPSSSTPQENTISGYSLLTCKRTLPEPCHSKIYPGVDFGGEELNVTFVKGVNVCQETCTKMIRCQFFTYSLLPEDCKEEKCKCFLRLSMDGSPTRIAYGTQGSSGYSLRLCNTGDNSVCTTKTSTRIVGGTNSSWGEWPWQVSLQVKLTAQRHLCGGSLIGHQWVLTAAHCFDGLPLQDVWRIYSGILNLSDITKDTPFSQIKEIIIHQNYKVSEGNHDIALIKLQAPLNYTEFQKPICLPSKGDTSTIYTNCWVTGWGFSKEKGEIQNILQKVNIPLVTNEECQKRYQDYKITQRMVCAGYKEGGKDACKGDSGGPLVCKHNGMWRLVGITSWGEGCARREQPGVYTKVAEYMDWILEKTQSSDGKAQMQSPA

Rat plasma Kallikrein [2] = molecular target: T2, Rat plasma Kallikrein (rat, UniProt P14272 391-638, limits assumed); experiment: enzyme inhibition assay
T2 construct: domain: catalytic domain; also called rPK; rat PK
T2 sequence (P14272 391-638 limits assumed): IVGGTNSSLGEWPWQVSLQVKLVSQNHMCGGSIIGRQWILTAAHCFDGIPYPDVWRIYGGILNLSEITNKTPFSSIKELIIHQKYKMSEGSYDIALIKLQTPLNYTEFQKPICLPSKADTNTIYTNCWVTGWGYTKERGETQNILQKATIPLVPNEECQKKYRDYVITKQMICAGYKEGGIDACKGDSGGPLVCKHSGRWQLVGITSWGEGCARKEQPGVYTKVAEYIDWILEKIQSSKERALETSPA

human plasma Kallikrein [3] = molecular target: T1, human plasma Kallikrein; experiment: enzyme inhibition assay; remark: listed apart in the source
Monkey plasma Kallikrein = molecular target: T3, Monkey plasma Kallikrein (monkey (Macaca mulatta), UniProt A0A1D5Q7U7 391-638); experiment: enzyme inhibition assay
T3 construct: domain: catalytic domain; also called mPK
T3 sequence (A0A1D5Q7U7 entry or part of it): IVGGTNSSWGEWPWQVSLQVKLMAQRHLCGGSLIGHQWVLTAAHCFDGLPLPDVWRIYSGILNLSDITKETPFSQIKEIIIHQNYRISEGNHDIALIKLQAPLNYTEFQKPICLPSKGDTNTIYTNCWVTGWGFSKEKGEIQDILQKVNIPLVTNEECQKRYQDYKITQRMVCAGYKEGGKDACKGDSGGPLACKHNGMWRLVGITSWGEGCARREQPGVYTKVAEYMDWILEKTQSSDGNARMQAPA

Rat plasma Kallikrein [4] = molecular target: T2, Rat plasma Kallikrein; experiment: enzyme inhibition assay; remark: listed apart in the source
human plasma Kallikrein [5] = molecular target: T1, human plasma Kallikrein; experiment: enzyme inhibition assay; remark: listed apart in the source
human plasma Kallikrein [6] = molecular target: T1, human plasma Kallikrein; experiment: enzyme inhibition assay; remark: listed apart in the source
human plasma Kallikrein [7] = molecular target: T1, human plasma Kallikrein; experiment: enzyme inhibition assay; remark: listed apart in the source
human plasma Kallikrein [8] = molecular target: T1, human plasma Kallikrein; experiment: enzyme inhibition assay; remark: listed apart in the source
human plasma Kallikrein [9] = molecular target: T1, human plasma Kallikrein; experiment: enzyme inhibition assay; remark: listed apart in the source
human plasma Kallikrein [10] = molecular target: T1, human plasma Kallikrein; experiment: enzyme inhibition assay; remark: listed apart in the source
human plasma Kallikrein [11] = molecular target: T1, human plasma Kallikrein; experiment: enzyme inhibition assay; remark: listed apart in the source
human plasma Kallikrein [12] = molecular target: T1, human plasma Kallikrein; experiment: enzyme inhibition assay; remark: listed apart in the source
Rat plasma Kallikrein [13] = molecular target: T2, Rat plasma Kallikrein; experiment: enzyme inhibition assay; values relative, not absolute
human plasma Kallikrein [14] = molecular target: T1, human plasma Kallikrein; experiment: enzyme inhibition assay; remark: listed apart in the source
human plasma Kallikrein [15] = molecular target: T1, human plasma Kallikrein; experiment: enzyme inhibition assay; remark: listed apart in the source
human plasma Kallikrein [16] = molecular target: T1, human plasma Kallikrein; experiment: enzyme inhibition assay; remark: listed apart in the source
human plasma Kallikrein [17] = molecular target: T1, human plasma Kallikrein; experiment: enzyme inhibition assay; remark: listed apart in the source
human plasma Kallikrein [18] = molecular target: T1, human plasma Kallikrein; experiment: enzyme inhibition assay; remark: listed apart in the source

ACRWPARCTHQNYCA (linker 2-8-14 via TBMB; not fully specified (N-terminus, C-terminus), also called PK106) [06-54 (2A2)]
Ki (human plasma Kallikrein [1]): 0.49 nM
Ki (Rat plasma Kallikrein [2]): 7 nM
Ki (human plasma Kallikrein [3]): 5 nM
Ki (Monkey plasma Kallikrein): 6 nM

ACSWPARCLHQDLCA (linker 2-8-14 via TBMB; not fully specified (N-terminus, C-terminus)) [06-34-18 (01 + 05)]
IC50 (Rat plasma Kallikrein [4]): 0.56 nM
IC50 (human plasma Kallikrein [5]): 0.07 nM
Ki (human plasma Kallikrein [6]): 0.04 nM

ACAWPARCAHQDLCA (linker 2-8-14 via TBMB; not fully specified (N-terminus, C-terminus), also called R1A/V6A) [06-34-03 - Ala1,6]
Ki (human plasma Kallikrein [6]): 0.147 nM

AC[Sar]WPARC[Sar]HQDLCA (linker 2-8-14 via TBMB; not fully specified (N-terminus, C-terminus), also called AC N-MeGWPARCN-MeGHQDLCA) [06-34-03 - N-MeGly1,6]
Ki (human plasma Kallikrein [6]): 24.8 nM

AC[NMeS]WPARCLHQDLCA (linker 2-8-14 via TBMB; not fully specified (N-terminus, C-terminus)) [06-34-18 -N-MeSer1]
fold loss in potency against the parent (human plasma Kallikrein [7]): 10 fold
Ki (human plasma Kallikrein [6]): 0.56 nM

B1: Ac-06-34-18(TMB)-NH2 (peptide)
peptide: Ac-CSWPARCLHQDLC-NH2
modifications: linker 1-7-13 via TBMB
SMILES: CC(=O)N[C@H]1CSCc2cc3cc(c2)CSC[C@H](NC(=O)[C@H](CCCNC(=N)N)NC(=O)[C@H](C)NC(=O)[C@@H]2CCCN2C(=O)[C@H](Cc2c[nH]c4ccccc24)NC(=O)[C@H](CO)NC1=O)C(=O)N[C@@H](CC(C)C)C(=O)N[C@@H](Cc1c[nH]cn1)C(=O)N[C@@H](CCC(N)=O)C(=O)N[C@@H](CC(=O)O)C(=O)N[C@@H](CC(C)C)C(=O)N[C@H](C(N)=O)CSC3
notes: also called Ac-(06-34-18) wildtype; Ac-(06-34-18) WPAR
Ki (human plasma Kallikrein [8]): 0.17 nM
Ki (human plasma Kallikrein [9]): 0.17 nM
Ki (human plasma Kallikrein [10]): 0.17 nM
Ki (human plasma Kallikrein [11]): 0.17 nM
Ki (human plasma Kallikrein [12]): 0.17 nM
IC50 (Rat plasma Kallikrein [13]): 1.7 nM
Ki (human plasma Kallikrein [14]): 0.17 nM
Ki (human plasma Kallikrein [15]): 0.17 nM
Ki (human plasma Kallikrein [16]): 0.17 nM
Ki (human plasma Kallikrein [17]): 0.17 nM
Ki (human plasma Kallikrein [18]): 0.17 nM

B2: Ac-(06-34-18) FPAR (peptide)
peptide: Ac-CSFPARCLHQDLC-NH2
modifications: linker 1-7-13 via TBMB
SMILES: CC(=O)N[C@H]1CSCc2cc3cc(c2)CSC[C@H](NC(=O)[C@H](CCCNC(=N)N)NC(=O)[C@H](C)NC(=O)[C@@H]2CCCN2C(=O)[C@H](Cc2ccccc2)NC(=O)[C@H](CO)NC1=O)C(=O)N[C@@H](CC(C)C)C(=O)N[C@@H](Cc1c[nH]cn1)C(=O)N[C@@H](CCC(N)=O)C(=O)N[C@@H](CC(=O)O)C(=O)N[C@@H](CC(C)C)C(=O)N[C@H](C(N)=O)CSC3
Ki (human plasma Kallikrein [10]): 6.28 nM
fold change in Ki against WPAR parent (human plasma Kallikrein [7]): 40 fold

B3: Ac-(06-34-18) WPSR (peptide)
peptide: Ac-CSWPSRCLHQDLC-NH2
modifications: linker 1-7-13 via TBMB
SMILES: CC(=O)N[C@H]1CSCc2cc3cc(c2)CSC[C@H](NC(=O)[C@H](CCCNC(=N)N)NC(=O)[C@H](CO)NC(=O)[C@@H]2CCCN2C(=O)[C@H](Cc2c[nH]c4ccccc24)NC(=O)[C@H](CO)NC1=O)C(=O)N[C@@H](CC(C)C)C(=O)N[C@@H](Cc1c[nH]cn1)C(=O)N[C@@H](CCC(N)=O)C(=O)N[C@@H](CC(=O)O)C(=O)N[C@@H](CC(C)C)C(=O)N[C@H](C(N)=O)CSC3
Ki (human plasma Kallikrein [10]): 0.44 nM

B4: Ac-(06-34-18) WPYR (peptide)
peptide: Ac-CSWPYRCLHQDLC-NH2
modifications: linker 1-7-13 via TBMB
SMILES: CC(=O)N[C@H]1CSCc2cc3cc(c2)CSC[C@H](NC(=O)[C@H](CCCNC(=N)N)NC(=O)[C@H](Cc2ccc(O)cc2)NC(=O)[C@@H]2CCCN2C(=O)[C@H](Cc2c[nH]c4ccccc24)NC(=O)[C@H](CO)NC1=O)C(=O)N[C@@H](CC(C)C)C(=O)N[C@@H](Cc1c[nH]cn1)C(=O)N[C@@H](CCC(N)=O)C(=O)N[C@@H](CC(=O)O)C(=O)N[C@@H](CC(C)C)C(=O)N[C@H](C(N)=O)CSC3
Ki (human plasma Kallikrein [10]): 0.41 nM

B5: Ac-(06-34-18) NMeArg5 (peptide)
peptide: Ac-CSWPA[NMeR]CLHQDLC-NH2
modifications: linker 1-7-13 via TBMB
SMILES: CC(=O)N[C@H]1CSCc2cc3cc(c2)CSC[C@H](NC(=O)[C@H](CCCNC(=N)N)N(C)C(=O)[C@H](C)NC(=O)[C@@H]2CCCN2C(=O)[C@H](Cc2c[nH]c4ccccc24)NC(=O)[C@H](CO)NC1=O)C(=O)N[C@@H](CC(C)C)C(=O)N[C@@H](Cc1c[nH]cn1)C(=O)N[C@@H](CCC(N)=O)C(=O)N[C@@H](CC(=O)O)C(=O)N[C@@H](CC(C)C)C(=O)N[C@H](C(N)=O)CSC3
fold reduction in affinity against wildtype peptide (human plasma Kallikrein [7]): 20 fold
Ki (human plasma Kallikrein [12]): 3.5 nM
IC50 (Rat plasma Kallikrein [13]): 98 nM
Ki (human plasma Kallikrein [16]): 3.5 nM

B6: Ac-(06-34-18) 4GuanPhe5 (peptide)
peptide: Ac-CSWPA[Phe(4-guanidino)]CLHQDLC-NH2
modifications: linker 1-7-13 via TBMB
SMILES: CC(=O)N[C@H]1CSCc2cc3cc(c2)CSC[C@H](NC(=O)[C@H](Cc2ccc(NC(=N)N)cc2)NC(=O)[C@H](C)NC(=O)[C@@H]2CCCN2C(=O)[C@H](Cc2c[nH]c4ccccc24)NC(=O)[C@H](CO)NC1=O)C(=O)N[C@@H](CC(C)C)C(=O)N[C@@H](Cc1c[nH]cn1)C(=O)N[C@@H](CCC(N)=O)C(=O)N[C@@H](CC(=O)O)C(=O)N[C@@H](CC(C)C)C(=O)N[C@H](C(N)=O)CSC3
Ki (human plasma Kallikrein [8]): 0.3 nM
IC50 (Rat plasma Kallikrein [13]): 21 nM
Ki (human plasma Kallikrein [16]): 0.34 nM

Ac-CSWPA[hArg]CLHQDLC-NH2 (linker 1-7-13 via TBMB) [Ac-(06-34-18) HomoArg5]
IC50 (Rat plasma Kallikrein [13]): 64 nM

B7: Ac-(06-34-18) Aze3 HomoArg5 (peptide)
peptide: Ac-CSW[Aze]A[hArg]CLHQDLC-NH2
modifications: linker 1-7-13 via TBMB
SMILES: CC(=O)N[C@H]1CSCc2cc3cc(c2)CSC[C@H](NC(=O)[C@H](CCCCNC(=N)N)NC(=O)[C@H](C)NC(=O)[C@@H]2CCN2C(=O)[C@H](Cc2c[nH]c4ccccc24)NC(=O)[C@H](CO)NC1=O)C(=O)N[C@@H](CC(C)C)C(=O)N[C@@H](Cc1c[nH]cn1)C(=O)N[C@@H](CCC(N)=O)C(=O)N[C@@H](CC(=O)O)C(=O)N[C@@H](CC(C)C)C(=O)N[C@H](C(N)=O)CSC3
Ki (human plasma Kallikrein [16]): 0.14 nM

B8: Ac-(06-34-18) Aze3 4GuanPhe5 (peptide)
peptide: Ac-CSW[Aze]A[Phe(4-guanidino)]CLHQDLC-NH2
modifications: linker 1-7-13 via TBMB
SMILES: CC(=O)N[C@H]1CSCc2cc3cc(c2)CSC[C@H](NC(=O)[C@H](Cc2ccc(NC(=N)N)cc2)NC(=O)[C@H](C)NC(=O)[C@@H]2CCN2C(=O)[C@H](Cc2c[nH]c4ccccc24)NC(=O)[C@H](CO)NC1=O)C(=O)N[C@@H](CC(C)C)C(=O)N[C@@H](Cc1c[nH]cn1)C(=O)N[C@@H](CCC(N)=O)C(=O)N[C@@H](CC(=O)O)C(=O)N[C@@H](CC(C)C)C(=O)N[C@H](C(N)=O)CSC3
Ki (human plasma Kallikrein [16]): 0.17 nM

B9: Ac-(06-34-18) Aze3 NMeArg5 (peptide)
peptide: Ac-CSW[Aze]A[NMeR]CLHQDLC-NH2
modifications: linker 1-7-13 via TBMB
SMILES: CC(=O)N[C@H]1CSCc2cc3cc(c2)CSC[C@H](NC(=O)[C@H](CCCNC(=N)N)N(C)C(=O)[C@H](C)NC(=O)[C@@H]2CCN2C(=O)[C@H](Cc2c[nH]c4ccccc24)NC(=O)[C@H](CO)NC1=O)C(=O)N[C@@H](CC(C)C)C(=O)N[C@@H](Cc1c[nH]cn1)C(=O)N[C@@H](CCC(N)=O)C(=O)N[C@@H](CC(=O)O)C(=O)N[C@@H](CC(C)C)C(=O)N[C@H](C(N)=O)CSC3
Ki (human plasma Kallikrein [16]): 1.3 nM

Ac-CSW[Aze][Abu][NMeR]CLHQDLC-NH2 (linker 1-7-13 via TBMB) [Ac-(06-34-18) Aze3 Aba4 NMeArg5]
Ki (human plasma Kallikrein [11]): 2.8 nM

Ac-CSW[Aze][Abu][hArg]CLHQDLC-NH2 (linker 1-7-13 via TBMB) [Ac-(06-34-18) Aze3 Aba4 HomoArg5]
Ki (human plasma Kallikrein [11]): 0.9 nM

Ac-CSW[Aze][Abu][Phe(4-guanidino)]CLHQDLC-NH2 (linker 1-7-13 via TBMB) [Ac-(06-34-18) Aze3 Aba4 4GuanPhe5]
Ki (human plasma Kallikrein [11]): 0.2 nM
